# IntAct's records for PubMed 21444796
# B1: Natural cytotoxicity triggering receptor 3 (Homo sapiens), O14931 (parent)
# chain: MAWMLLLILIMVHPGSCALWVSQPPEIRTLEGSSAFLPCSFNASQGRLAIGSVTWFRDEVVPGKEVRNGTPEFRGRLAPLASSRFLHDHQAELHIRDVRGHDASIYVCRVEVLGLGVGTGNGTRLVVEKEHPQLGAGTVLLLRAGFYAVSFLSVAVGSTVYYQGKCLTWKGPRRQLPAVVPAPLPPPCGSSAHLLPPVPGG
# partner: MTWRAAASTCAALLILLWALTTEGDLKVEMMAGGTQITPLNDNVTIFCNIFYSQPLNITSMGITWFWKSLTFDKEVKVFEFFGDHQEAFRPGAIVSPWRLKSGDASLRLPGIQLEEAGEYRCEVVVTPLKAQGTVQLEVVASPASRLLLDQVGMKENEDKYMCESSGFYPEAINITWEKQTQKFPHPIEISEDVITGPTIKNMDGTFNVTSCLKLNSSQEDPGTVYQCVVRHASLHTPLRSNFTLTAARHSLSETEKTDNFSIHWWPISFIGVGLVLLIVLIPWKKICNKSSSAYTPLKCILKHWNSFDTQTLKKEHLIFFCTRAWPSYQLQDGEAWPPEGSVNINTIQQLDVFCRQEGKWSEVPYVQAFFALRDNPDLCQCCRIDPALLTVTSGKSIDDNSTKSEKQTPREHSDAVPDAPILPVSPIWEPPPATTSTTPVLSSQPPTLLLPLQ
# Variants of: B1
# Conditions: with nr3l1_human NCR3LG1, Q68D85
row,Variant,effect of a mutation on the interaction
1,MAWMLLLILIMVHPGSCALWVSQPPEIRTLEGSSAFLPCSFNASQGRLAIGSVTWFRDEVVPGKEVRNGTPEFRGRLAPLASSRFLHDHQAELHIRDVRGHDASIYVCSVSVAGLGVGTGNGTRLVVEKEHPQLGAGTVLLLRAGFYAVSFLSVAVGSTVYYQGKCLTWKGPRRQLPAVVPAPLPPPCGSSAHLLPPVPGG [R109S;E111S;L113A],decreasing interaction strength
2,MAWMLLLILIMVHPGSCALWVSQPPEIRTLEGSSAFLPCSFNASQGRLAIGSVTWFRDEVVPGKSVSNGTPEFRGRLAPLASSRFLHDHQAELHIRDVRGHDASIYVCRVEVLGLGVGTGNGTRLVVEKEHPQLGAGTVLLLRAGFYAVSFLSVAVGSTVYYQGKCLTWKGPRRQLPAVVPAPLPPPCGSSAHLLPPVPGG [E65S;R67S],decreasing interaction strength
3,MAWMLLLILIMVHPGSCALWVSQPPEIRTLEGSSAFLPCSFNASQGRLAAGAVTWFRDEVVPGKEVRNGTPEFRGRLAPLASSRFLHDHQAELHIRDVRGHDASIYVCRVEVLGLGVGTGNGTRLVVEKEHPQLGAGTVLLLRAGFYAVSFLSVAVGSTVYYQGKCLTWKGPRRQLPAVVPAPLPPPCGSSAHLLPPVPGG [I50A;S52A],decreasing interaction strength
4,MAWMLLLILIMVHPGSCALWVSQPPEIRTLEGSSAFLPCSFNASQGRLAIGSVTWFRDEVVPGKEVRNGTPEFRGRLAPLASSRFLHDHQAELHIRDVRGHDASIYVCEVRVAGLGVGTGNGTRLVVEKEHPQLGAGTVLLLRAGFYAVSFLSVAVGSTVYYQGKCLTWKGPRRQLPAVVPAPLPPPCGSSAHLLPPVPGG [R109E;E111R;L113A],decreasing interaction strength
